Results reported in US20150203577A1 (Chugai, published 2015).

Legend:
mouse FcγRII [1] = target: T1, mouse FcγRII (mouse, UniProt P08101 30-210); experiment: SPR (Biacore T200); KD of H237-MB630/MRAL-k0 / KD of variant
T1 construct: Extracellular domain with C-terminal His tag; also called mFcγRII; mFcgRII
T1 sequence: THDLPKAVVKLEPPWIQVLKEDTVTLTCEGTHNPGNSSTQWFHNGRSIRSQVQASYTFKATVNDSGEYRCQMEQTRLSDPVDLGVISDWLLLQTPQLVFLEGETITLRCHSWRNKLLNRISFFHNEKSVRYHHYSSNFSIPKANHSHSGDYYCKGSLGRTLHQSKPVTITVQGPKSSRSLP
From the text: (§1) The antibody H chain variable region used was the variable region H237 (SEQ ID NO: 1) of the H chain VH3-IgG1 of the anti-IL-6 receptor antibody Fv4-IgG1 described in WO2009/125825. The antibody L chain commonly used was the L chain MRAL-k0 (SEQ ID NO: 2) of the anti-IL-6 receptor antibody tocilizumab. […] These variants were expressed and purified by the method of Reference Example 1 and evaluated for their binding to mFcγRII and mFcγRIII by the method of Reference Example 2 using Biacore T200.
(§2) Each altered antibody was analyzed for its interaction with each Fcγ receptor prepared above using Biacore T100 (GE Healthcare Japan Corp.), Biacore T200 (GE Healthcare Japan Corp.), Biacore A100, or Biacore 4000. The running buffer used was HBS-EP+ (GE Healthcare Japan Corp.). The assay temperature was set to 25° C. The sensor chips used were chips prepared by immobilizing Protein L (ACTIGEN or BioVision) onto Series S Sensor Chip CM5 (GE Healthcare Japan Corp.) or Series S Sensor Chip CM4 (GE Healthcare Japan Corp.) by the amine coupling method.
(§3) In order to calculate the KD value of each altered antibody for FcγR, kinetic analysis was conducted according to the following method: first, the antibody of interest was captured onto any of these chips and allowed to interact with mFcγR diluted with a running buffer. For the obtained sensorgram, the assay results were globally fit into the 1:1 Langmuir binding model using Biacore Evaluation Software to calculate an association rate constant ka (L/mol/s) and a dissociation rate constant kd (1/s). From these values, the dissociation constant KD (mol/L) was calculated.

mouse FcγRIII [2] = target: T2, mouse FcγRIII (mouse, UniProt P08508 31-215); experiment: as above
T2 construct: Extracellular domain with C-terminal His tag; also called mFcγRIII; mFcgRIII
T2 chain: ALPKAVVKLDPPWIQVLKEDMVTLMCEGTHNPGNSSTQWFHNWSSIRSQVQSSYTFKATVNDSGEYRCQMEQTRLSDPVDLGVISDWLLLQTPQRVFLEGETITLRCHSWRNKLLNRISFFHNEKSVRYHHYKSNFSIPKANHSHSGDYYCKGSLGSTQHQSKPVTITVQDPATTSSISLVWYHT
From the text: as §1, §2, §3

mouse FcγRII [3] = target: T1, mouse FcγRII; experiment: SPR (Biacore T200); KD of H237-mIgG1/MRAL-k0 / KD of variant
From the text: as §1, §2

mouse FcγRIII [4] = target: T2, mouse FcγRIII; experiment: as above
From the text: as §1, §2

Row | Binder | Relative mFcγRII-binding activity (MB630 = 1) (mouse FcγRII [1]) [fold] | Relative mFcγRIII-binding activity (MB630 = 1) (mouse FcγRIII [2]) [fold] | relative mFcγRII-binding activity (mIgG1 = 1) (mouse FcγRII [3]) [fold] | relative mFcγRIII-binding activity (mIgG1 = 1) (mouse FcγRIII [4]) [fold]
1 | MB750 (antibody, mouse IgG1, kappa, CH name; VH H237 + CH, L chain MRAL-k0; copies: 2 + 2) heavy: QVQLQESGPGLVKPSETLSLTCAVSGHSISHDHAWSWVRQPPGEGLEWIGFISYSGITNYNPSLQGRVTISRDNSKNTLYLQMNSLRAEDTAVYYCARSLARTTAMDYWGEGTLVTVSSAKTTPPSVYPLAPGSAAQTNSMVTLGCLVKGYFPEPVTVTWNSGSLSSGVHTFPAVLQSDLYTLSSSVTVPSSTWPSETVTCNVAHPASSTKVDKKIVPRDCGCKPCICEPNEVELVFIFPPKPKDVLTITLTPKVTCVVVDISKDDPEVQFSWFVDDVEVHTAQTQPREEQFNSTFRSVSELPIMHQDWLNGKEFKCRVNSDAFPAPIEKTISKTKGRPKAPQVYTIPPPKEQMAKDKVSLTCMITDFFPEDITVEWQWNGQPAENYKNTQPIMDTDGSYFVYSKLNVQKSNWEAGNTFTCSVLHEGLHNHHTEKSLSHSPGK light: not shown | 1.77 | 2.06 | 29.4 | 0.4
2 | MB751 (antibody, mouse IgG1, kappa, CH name; VH H237 + CH, L chain MRAL-k0; copies: 2 + 2) heavy: QVQLQESGPGLVKPSETLSLTCAVSGHSISHDHAWSWVRQPPGEGLEWIGFISYSGITNYNPSLQGRVTISRDNSKNTLYLQMNSLRAEDTAVYYCARSLARTTAMDYWGEGTLVTVSSAKTTPPSVYPLAPGSAAQTNSMVTLGCLVKGYFPEPVTVTWNSGSLSSGVHTFPAVLQSDLYTLSSSVTVPSSTWPSETVTCNVAHPASSTKVDKKIVPRDCGCKPCICEPNEVELVFIFPPKPKDVLTITLTPKVTCVVVDISKDDPEVQFSWFVDDVEVHTAQTQPREEQFNSTFRSVSELPIMHQDWLNGKEFKCRVNSAAFPAPIERTISKTKGRPKAPQVYTIPPPKEQMAKDKVSLTCMITDFFPEDITVEWQWNGQPAENYKNTQPIMDTDGSYFVYSKLNVQKSNWEAGNTFTCSVLHEGLHNHHTEKSLSHSPGK light: not shown | 1.53 | 1.63 | 25.4 | 0.32
3 | MB753 (antibody, mouse IgG1, kappa, CH name; VH H237 + CH, L chain MRAL-k0; copies: 2 + 2) heavy: QVQLQESGPGLVKPSETLSLTCAVSGHSISHDHAWSWVRQPPGEGLEWIGFISYSGITNYNPSLQGRVTISRDNSKNTLYLQMNSLRAEDTAVYYCARSLARTTAMDYWGEGTLVTVSSAKTTPPSVYPLAPGSAAQTNSMVTLGCLVKGYFPEPVTVTWNSGSLSSGVHTFPAVLQSDLYTLSSSVTVPSSTWPSETVTCNVAHPASSTKVDKKIVPRDCGCKPCICEPNEVELVFIFPPKPKDVLTITLTPKVTCVVVDISKDDPEVQFSWFVDDVEVHTAQTQPREEQFNMTFRSVSELPIMHQDWLNGKEFKCRVNSAAFPAPIEKTISKTKGRPKAPQVYTIPPPKEQMAKDKVSLTCMITDFFPEDITVEWQWNGQPAENYKNTQPIMDTDGSYFVYSKLNVQKSNWEAGNTFTCSVLHEGLHNHHTEKSLSHSPGK light: not shown | 0.34 | 0.34 | 5.7 | 0.07
4 | MB755 (antibody, mouse IgG1, kappa, CH name; VH H237 + CH, L chain MRAL-k0; copies: 2 + 2) heavy: QVQLQESGPGLVKPSETLSLTCAVSGHSISHDHAWSWVRQPPGEGLEWIGFISYSGITNYNPSLQGRVTISRDNSKNTLYLQMNSLRAEDTAVYYCARSLARTTAMDYWGEGTLVTVSSAKTTPPSVYPLAPGSAAQTNSMVTLGCLVKGYFPEPVTVTWNSGSLSSGVHTFPAVLQSDLYTLSSSVTVPSSTWPSETVTCNVAHPASSTKVDKKIVPRDCGCKPCICEPNEVELVFIFPPKPKDVLTITLTPKVTCVVVDISKDDPEVQFSWFVDDVEVHTAQTQPREEQFNLTFRSVSELPIMHQDWLNGKEFKCRVDSAAFPAPIEKTISKTKGRPKAPQVYTIPPPKEQMAKDKVSLTCMITDFFPEDITVEWQWNGQPAENYKNTQPIMDTDGSYFVYSKLNVQKSNWEAGNTFTCSVLHEGLHNHHTEKSLSHSPGK light: not shown | 0.45 | 0.58 | 7.6 | 0.11
5 | MB754 (antibody, mouse IgG1, kappa, CH name; VH H237 + CH, L chain MRAL-k0; copies: 2 + 2) heavy: QVQLQESGPGLVKPSETLSLTCAVSGHSISHDHAWSWVRQPPGEGLEWIGFISYSGITNYNPSLQGRVTISRDNSKNTLYLQMNSLRAEDTAVYYCARSLARTTAMDYWGEGTLVTVSSAKTTPPSVYPLAPGSAAQTNSMVTLGCLVKGYFPEPVTVTWNSGSLSSGVHTFPAVLQSDLYTLSSSVTVPSSTWPSETVTCNVAHPASSTKVDKKIVPRDCGCKPCICEPNEVELVFIFPPKPKDVLTITLTPKVTCVVVDISKDDPEVQFSWFVDDVEVHTAQTQPREEQFNSTFRSVSELPIMHQDWLNGKEFKCRVDSAAFPAPIEKTISKTKGRPKAPQVYTIPPPKEQMAKDKVSLTCMITDFFPEDITVEWQWNGQPAENYKNTQPIMDTDGSYFVYSKLNVQKSNWEAGNTFTCSVLHEGLHNHHTEKSLSHSPGK light: not shown | 1.26 | 1.28 | 21 | 0.25
6 | MB748 (antibody, mouse IgG1, kappa, CH name; VH H237 + CH, L chain MRAL-k0; copies: 2 + 2) heavy: QVQLQESGPGLVKPSETLSLTCAVSGHSISHDHAWSWVRQPPGEGLEWIGFISYSGITNYNPSLQGRVTISRDNSKNTLYLQMNSLRAEDTAVYYCARSLARTTAMDYWGEGTLVTVSSAKTTPPSVYPLAPGSAAQTNSMVTLGCLVKGYFPEPVTVTWNSGSLSSGVHTFPAVLQSDLYTLSSSVTVPSSTWPSETVTCNVAHPASSTKVDKKIVPRDCGCKPCICEPNEVELVFIFPPKPKDVLTITLTPKVTCVVVDIAKDDPEVQFSWFVDDVEVHTAQTQPREEQFNSTFRSVSELPIMHQDWLNGKEFKCRVNSAAFPAPIEKTISKTKGRPKAPQVYTIPPPKEQMAKDKVSLTCMITDFFPEDITVEWQWNGQPAENYKNTQPIMDTDGSYFVYSKLNVQKSNWEAGNTFTCSVLHEGLHNHHTEKSLSHSPGK light: not shown | 0.7 | 0.7 | 11.7 | 0.14
7 | MB749 (antibody, mouse IgG1, kappa, CH name; VH H237 + CH, L chain MRAL-k0; copies: 2 + 2) heavy: QVQLQESGPGLVKPSETLSLTCAVSGHSISHDHAWSWVRQPPGEGLEWIGFISYSGITNYNPSLQGRVTISRDNSKNTLYLQMNSLRAEDTAVYYCARSLARTTAMDYWGEGTLVTVSSAKTTPPSVYPLAPGSAAQTNSMVTLGCLVKGYFPEPVTVTWNSGSLSSGVHTFPAVLQSDLYTLSSSVTVPSSTWPSETVTCNVAHPASSTKVDKKIVPRDCGCKPCICEPNEVELVFIFPPKPKDVLTITLTPKVTCVVVDISKDDPEVQFSWFVDDVEVHTAQTQPREELFNSTFRSVSELPIMHQDWLNGKEFKCRVNSAAFPAPIEKTISKTKGRPKAPQVYTIPPPKEQMAKDKVSLTCMITDFFPEDITVEWQWNGQPAENYKNTQPIMDTDGSYFVYSKLNVQKSNWEAGNTFTCSVLHEGLHNHHTEKSLSHSPGK light: not shown | 1.52 | 1.96 | 25.3 | 0.38
8 | MB752 (antibody, mouse IgG1, kappa, CH name; VH H237 + CH, L chain MRAL-k0; copies: 2 + 2) heavy: QVQLQESGPGLVKPSETLSLTCAVSGHSISHDHAWSWVRQPPGEGLEWIGFISYSGITNYNPSLQGRVTISRDNSKNTLYLQMNSLRAEDTAVYYCARSLARTTAMDYWGEGTLVTVSSAKTTPPSVYPLAPGSAAQTNSMVTLGCLVKGYFPEPVTVTWNSGSLSSGVHTFPAVLQSDLYTLSSSVTVPSSTWPSETVTCNVAHPASSTKVDKKIVPRDCGCKPCICEPNEVELVFIFPPKPKDVLTITLTPKVTCVVVDISKDDPEVQFSWFVDDVEVHTAQTQPREEQFNLTFRSVSELPIMHQDWLNGKEFKCRVNSAAFPAPIEKTISKTKGRPKAPQVYTIPPPKEQMAKDKVSLTCMITDFFPEDITVEWQWNGQPAENYKNTQPIMDTDGSYFVYSKLNVQKSNWEAGNTFTCSVLHEGLHNHHTEKSLSHSPGK light: not shown | 0.36 | 0.44 | 6 | 0.09
